Experimental data published in FireProtDB (doi:10.1021/bi0115028).
Several values for one entry are separate records, joined by “and”; a condition that tells them apart may be missing. Equal values may be shown once.

Settings: Bos taurus, 25 °C, NaCl 2 M, whole UniProt chain shown
[1] = pH 2.3, GdnHCl, Absorbance, H3PO4, NaOH
[2] = pH 2.3, GdnHCl, CD, H3PO4, NaOH
[3] = pH 6.2, GdnHCl, Absorbance, KH2PO4-Na2HPO4
[4] = pH 6.2, GdnHCl, CD, KH2PO4-Na2HPO4
[5] = pH 6.2, Urea, Absorbance, KH2PO4-Na2HPO4
[6] = pH 6.2, Urea, CD, KH2PO4-Na2HPO4
[7] = pH 8.3, GdnHCl, Absorbance, KHPO4-Na2HPO4/NaOH
[8] = pH 8.3, GdnHCl, CD, KHPO4-Na2HPO4/NaOH
[9] = pH 8.3, Urea, Absorbance, KHPO4-Na2HPO4/NaOH
[10] = pH 8.3, Urea, CD, KHPO4-Na2HPO4/NaOH

B1: Beta-lactoglobulin wild type, P02754 (protein)
chain: MKCLLLALALTCGAQALIVTQTMKGLDIQKVAGTWYSLAMAASDISLLDAQSAPLRVYVEELKPTPEGDLEILLQKWENGECAQKKIIAEKTKIPAVFKIDALNENKVLVLDTDYKKYLLFCMENSAEPEQSLACQCLVRTPEVDDEALEKFDKALKALPMHIRLSFNPTQLEEQCHI
[1]
  denaturant m value: 3.9 kcal/mol/M
  denaturant midpoint (higher = more stable): 3.4 M
  unfolding free energy: 13.4 kcal/mol
[2]
  denaturant m value: 3.8 kcal/mol/M and 4.4 kcal/mol/M
  denaturant midpoint (higher = more stable): 3.5 M
  unfolding free energy: 13 kcal/mol and 15.2 kcal/mol
[3]
  denaturant m value: 2.5 kcal/mol/M
  denaturant midpoint (higher = more stable): 2.7 M
  unfolding free energy: 8.4 kcal/mol
[4]
  denaturant m value: 3.3 kcal/mol/M and 2.5 kcal/mol/M
  denaturant midpoint (higher = more stable): 2.9 M and 2.7 M
  unfolding free energy: 9.5 kcal/mol and 6.9 kcal/mol
[5]
  denaturant m value: 0.9 kcal/mol/M
  denaturant midpoint (higher = more stable): 4.1 M
  unfolding free energy: 3.7 kcal/mol
[6]
  denaturant m value: 0.7 kcal/mol/M and 0.6 kcal/mol/M
  denaturant midpoint (higher = more stable): 3.5 M and 2.1 M
  unfolding free energy: 2.3 kcal/mol and 1.4 kcal/mol
[7]
  denaturant m value: 3.2 kcal/mol/M
  denaturant midpoint (higher = more stable): 2.3 M
  unfolding free energy: 7.6 kcal/mol
[8]
  denaturant m value: 3 kcal/mol/M and 3.4 kcal/mol/M
  denaturant midpoint (higher = more stable): 2 M
  unfolding free energy: 5.9 kcal/mol and 6.9 kcal/mol
[9]
  denaturant m value: 1.1 kcal/mol/M
  denaturant midpoint (higher = more stable): 3.5 M
  unfolding free energy: 4 kcal/mol
[10]
  denaturant m value: 1.5 kcal/mol/M and 1.4 kcal/mol/M
  denaturant midpoint (higher = more stable): 4.4 M and 3.6 M
  unfolding free energy: 6.4 kcal/mol and 5 kcal/mol
